In patent USRE48558 (Genentech, dated 2021):

T1: extracellular domain of human CD79b (human, UniProt P40259 29-159)
T1 construct: also called huCD79becd; huCD79b-ecd
T1 sequence: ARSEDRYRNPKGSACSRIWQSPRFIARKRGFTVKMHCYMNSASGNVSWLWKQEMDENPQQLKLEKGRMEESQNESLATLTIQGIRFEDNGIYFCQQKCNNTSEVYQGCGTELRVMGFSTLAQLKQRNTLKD

B1: huMA79b graft variant SEQ ID NO: 70 (Fab, name in Kabat numbering, V domains shown)
VH: EVQLVESGGGLVQPGGSLRLSCAASGYTFTSYWIEWVRQAPGKGLEWVGEILPGGGDTNYNEIFKGRFTISADTSKNTAYLQMNSLRAEDTAVYYCTRRVPVYFDYWGQGTLVTVSS
VL: DIQMTQSPSSLSASVGDRVTITCKASQSVDYDGDSFLNWYQQKPGKAPKLLIYAASNLESGVPSRFSGSGSGTDFTLTISSLQPEDFATYYCQQSNEDPLTFGQGTKVEIKR
notes: Fab on phage; rest as huMA79b graft
B2: huMA79b graft variant SEQ ID NO: 78 (Fab, name in Kabat numbering, V domains shown)
VH: EVQLVESGGGLVQPGGSLRLSCAASGYPFSGYWIEWVRQAPGKGLEWVGEILPGGGDTNYNEIFKGRFTISADTSKNTAYLQMNSLRAEDTAVYYCTRRVPVYFDYWGQGTLVTVSS
VL: DIQMTQSPSSLSASVGDRVTITCKASQSVDYDGDSFLNWYQQKPGKAPKLLIYAASNLESGVPSRFSGSGSGTDFTLTISSLQPEDFATYYCQQSNEDPLTFGQGTKVEIKR
notes: as for B1
B3: huMA79b graft variant SEQ ID NO: 81 (Fab, name in Kabat numbering, V domains shown)
VH: EVQLVESGGGLVQPGGSLRLSCAASGYPFRGYWIEWVRQAPGKGLEWVGEILPGGGDTNYNEIFKGRFTISADTSKNTAYLQMNSLRAEDTAVYYCTRRVPVYFDYWGQGTLVTVSS
VL: DIQMTQSPSSLSASVGDRVTITCKASQSVDYDGDSFLNWYQQKPGKAPKLLIYAASNLESGVPSRFSGSGSGTDFTLTISSLQPEDFATYYCQQSNEDPLTFGQGTKVEIKR
notes: as for B1
B4: huMA79b graft variant SEQ ID NO: 95 (Fab, name in Kabat numbering, V domains shown)
VH: EVQLVESGGGLVQPGGSLRLSCAASGYTFSSYWIEWVRQAPGKGLEWVGEILPGGGDTNYNEIFKGRFTISADTSKNTAYLQMNSLRAEDTAVYYCTRRVPIKLDYWGQGTLVTVSS
VL: DIQMTQSPSSLSASVGDRVTITCKASQSVDYDGDSFLNWYQQKPGKAPKLLIYAASNLESGVPSRFSGSGSGTDFTLTISSLQPEDFATYYCQQSNEDPLTFGQGTKVEIKR
notes: as for B1
B5: huMA79b graft variant SEQ ID NO: 77 (Fab, name in Kabat numbering, V domains shown)
VH: EVQLVESGGGLVQPGGSLRLSCAASGYPFTRYWIEWVRQAPGKGLEWVGEILPGGGDTNYNEIFKGRFTISADTSKNTAYLQMNSLRAEDTAVYYCTRRVPVYFDYWGQGTLVTVSS
VL: DIQMTQSPSSLSASVGDRVTITCKASQSVDYDGDSFLNWYQQKPGKAPKLLIYAASNLESGVPSRFSGSGSGTDFTLTISSLQPEDFATYYCQQSNEDPLTFGQGTKVEIKR
notes: as for B1
B6: huMA79b graft variant SEQ ID NO: 75 (Fab, name in Kabat numbering, V domains shown)
VH: EVQLVESGGGLVQPGGSLRLSCAASGYSFRRYWIEWVRQAPGKGLEWVGEILPGGGDTNYNEIFKGRFTISADTSKNTAYLQMNSLRAEDTAVYYCTRRVPVYFDYWGQGTLVTVSS
VL: DIQMTQSPSSLSASVGDRVTITCKASQSVDYDGDSFLNWYQQKPGKAPKLLIYAASNLESGVPSRFSGSGSGTDFTLTISSLQPEDFATYYCQQSNEDPLTFGQGTKVEIKR
notes: as for B1
B7: huMA79b graft variant SEQ ID NO: 71 (Fab, name in Kabat numbering, V domains shown)
VH: EVQLVESGGGLVQPGGSLRLSCAASGYTFSGYWINWVRQAPGKGLEWVGEILPGGGDTNYNEIFKGRFTISADTSKNTAYLQMNSLRAEDTAVYYCTRRVPVYFDYWGQGTLVTVSS
VL: DIQMTQSPSSLSASVGDRVTITCKASQSVDYDGDSFLNWYQQKPGKAPKLLIYAASNLESGVPSRFSGSGSGTDFTLTISSLQPEDFATYYCQQSNEDPLTFGQGTKVEIKR
notes: as for B1
B8: huMA79b graft variant SEQ ID NO: 80 (Fab, name in Kabat numbering, V domains shown)
VH: EVQLVESGGGLVQPGGSLRLSCAASGYPFRSYWINWVRQAPGKGLEWVGEILPGGGDTNYNEIFKGRFTISADTSKNTAYLQMNSLRAEDTAVYYCTRRVPVYFDYWGQGTLVTVSS
VL: DIQMTQSPSSLSASVGDRVTITCKASQSVDYDGDSFLNWYQQKPGKAPKLLIYAASNLESGVPSRFSGSGSGTDFTLTISSLQPEDFATYYCQQSNEDPLTFGQGTKVEIKR
notes: as for B1
B9: huMA79b graft variant SEQ ID NO: 74 (Fab, name in Kabat numbering, V domains shown)
VH: EVQLVESGGGLVQPGGSLRLSCAASGYSFRRYWINWVRQAPGKGLEWVGEILPGGGDTNYNEIFKGRFTISADTSKNTAYLQMNSLRAEDTAVYYCTRRVPVYFDYWGQGTLVTVSS
VL: DIQMTQSPSSLSASVGDRVTITCKASQSVDYDGDSFLNWYQQKPGKAPKLLIYAASNLESGVPSRFSGSGSGTDFTLTISSLQPEDFATYYCQQSNEDPLTFGQGTKVEIKR
notes: as for B1
B10: huMA79b graft variant SEQ ID NO: 79 (Fab, name in Kabat numbering, V domains shown)
VH: EVQLVESGGGLVQPGGSLRLSCAASGYPFRSYWISWVRQAPGKGLEWVGEILPGGGDTNYNEIFKGRFTISADTSKNTAYLQMNSLRAEDTAVYYCTRRVPVYFDYWGQGTLVTVSS
VL: DIQMTQSPSSLSASVGDRVTITCKASQSVDYDGDSFLNWYQQKPGKAPKLLIYAASNLESGVPSRFSGSGSGTDFTLTISSLQPEDFATYYCQQSNEDPLTFGQGTKVEIKR
notes: as for B1
B11: huMA79b graft variant SEQ ID NO: 76 (Fab, name in Kabat numbering, V domains shown)
VH: EVQLVESGGGLVQPGGSLRLSCAASGYSFPSYWLQWVRQAPGKGLEWVGEILPGGGDTNYNEIFKGRFTISADTSKNTAYLQMNSLRAEDTAVYYCTRRVPVYFDYWGQGTLVTVSS
VL: DIQMTQSPSSLSASVGDRVTITCKASQSVDYDGDSFLNWYQQKPGKAPKLLIYAASNLESGVPSRFSGSGSGTDFTLTISSLQPEDFATYYCQQSNEDPLTFGQGTKVEIKR
notes: as for B1
B12: huMA79b graft variant SEQ ID NO: 72 (Fab, name in Kabat numbering, V domains shown)
VH: EVQLVESGGGLVQPGGSLRLSCAASGYTFRRYWINWVRQAPGKGLEWVGEILPGGGDTNYNEIFKGRFTISADTSKNTAYLQMNSLRAEDTAVYYCTRRVPVYFDYWGQGTLVTVSS
VL: DIQMTQSPSSLSASVGDRVTITCKASQSVDYDGDSFLNWYQQKPGKAPKLLIYAASNLESGVPSRFSGSGSGTDFTLTISSLQPEDFATYYCQQSNEDPLTFGQGTKVEIKR
notes: as for B1
B13: huMA79b graft variant SEQ ID NO: 89 (Fab, name in Kabat numbering, V domains shown)
VH: EVQLVESGGGLVQPGGSLRLSCAASGYTFSSYWIEWVRQAPGKGLEWVGEILPGGGDTNYNEIFKGRFTISADTSKNTAYLQMNSLRAEDTAVYYCTRRVPVKLDYWGQGTLVTVSS
VL: DIQMTQSPSSLSASVGDRVTITCKASQSVDYDGDSFLNWYQQKPGKAPKLLIYAASNLESGVPSRFSGSGSGTDFTLTISSLQPEDFATYYCQQSNEDPLTFGQGTKVEIKR
notes: as for B1
B14: huMA79b graft variant SEQ ID NO: 92 (Fab, name in Kabat numbering, V domains shown)
VH: EVQLVESGGGLVQPGGSLRLSCAASGYTFSSYWIEWVRQAPGKGLEWVGEILPGGGDTNYNEIFKGRFTISADTSKNTAYLQMNSLRAEDTAVYYCTRRVPFCLDYWGQGTLVTVSS
VL: DIQMTQSPSSLSASVGDRVTITCKASQSVDYDGDSFLNWYQQKPGKAPKLLIYAASNLESGVPSRFSGSGSGTDFTLTISSLQPEDFATYYCQQSNEDPLTFGQGTKVEIKR
notes: as for B1
B15: huMA79b graft variant SEQ ID NO: 85 (Fab, name in Kabat numbering, V domains shown)
VH: EVQLVESGGGLVQPGGSLRLSCAASGFPFTSYWISWVRQAPGKGLEWVGEILPGGGDTNYNEIFKGRFTISADTSKNTAYLQMNSLRAEDTAVYYCTRRVPVYFDYWGQGTLVTVSS
VL: DIQMTQSPSSLSASVGDRVTITCKASQSVDYDGDSFLNWYQQKPGKAPKLLIYAASNLESGVPSRFSGSGSGTDFTLTISSLQPEDFATYYCQQSNEDPLTFGQGTKVEIKR
notes: as for B1
B16: huMA79b graft variant SEQ ID NO: 82 (Fab, name in Kabat numbering, V domains shown)
VH: EVQLVESGGGLVQPGGSLRLSCAASGYPFNRYWIEWVRQAPGKGLEWVGEILPGGGDTNYNEIFKGRFTISADTSKNTAYLQMNSLRAEDTAVYYCTRRVPVYFDYWGQGTLVTVSS
VL: DIQMTQSPSSLSASVGDRVTITCKASQSVDYDGDSFLNWYQQKPGKAPKLLIYAASNLESGVPSRFSGSGSGTDFTLTISSLQPEDFATYYCQQSNEDPLTFGQGTKVEIKR
notes: as for B1
B17: huMA79b graft variant SEQ ID NO: 73 (Fab, name in Kabat numbering, V domains shown)
VH: EVQLVESGGGLVQPGGSLRLSCAASGYSFRSYWINWVRQAPGKGLEWVGEILPGGGDTNYNEIFKGRFTISADTSKNTAYLQMNSLRAEDTAVYYCTRRVPVYFDYWGQGTLVTVSS
VL: DIQMTQSPSSLSASVGDRVTITCKASQSVDYDGDSFLNWYQQKPGKAPKLLIYAASNLESGVPSRFSGSGSGTDFTLTISSLQPEDFATYYCQQSNEDPLTFGQGTKVEIKR
notes: as for B1
B18: huMA79b graft variant SEQ ID NO: 86 (Fab, name in Kabat numbering, V domains shown)
VH: EVQLVESGGGLVQPGGSLRLSCAASGFPFNRYWINWVRQAPGKGLEWVGEILPGGGDTNYNEIFKGRFTISADTSKNTAYLQMNSLRAEDTAVYYCTRRVPVYFDYWGQGTLVTVSS
VL: DIQMTQSPSSLSASVGDRVTITCKASQSVDYDGDSFLNWYQQKPGKAPKLLIYAASNLESGVPSRFSGSGSGTDFTLTISSLQPEDFATYYCQQSNEDPLTFGQGTKVEIKR
notes: as for B1
B19: huMA79b graft variant SEQ ID NO: 96 (Fab, name in Kabat numbering, V domains shown)
VH: EVQLVESGGGLVQPGGSLRLSCAASGYTFSSYWIEWVRQAPGKGLEWVGEILPGGGDTNYNEIFKGRFTISADTSKNTAYLQMNSLRAEDTAVYYCTRRVPIRFDYWGQGTLVTVSS
VL: DIQMTQSPSSLSASVGDRVTITCKASQSVDYDGDSFLNWYQQKPGKAPKLLIYAASNLESGVPSRFSGSGSGTDFTLTISSLQPEDFATYYCQQSNEDPLTFGQGTKVEIKR
notes: as for B1
B20: huMA79b graft variant SEQ ID NO: 84 (Fab, name in Kabat numbering, V domains shown)
VH: EVQLVESGGGLVQPGGSLRLSCAASGYNVSSYWLSWVRQAPGKGLEWVGEILPGGGDTNYNEIFKGRFTISADTSKNTAYLQMNSLRAEDTAVYYCTRRVPVYFDYWGQGTLVTVSS
VL: DIQMTQSPSSLSASVGDRVTITCKASQSVDYDGDSFLNWYQQKPGKAPKLLIYAASNLESGVPSRFSGSGSGTDFTLTISSLQPEDFATYYCQQSNEDPLTFGQGTKVEIKR
notes: as for B1
B21: huMA79b graft variant SEQ ID NO: 83 (Fab, name in Kabat numbering, V domains shown)
VH: EVQLVESGGGLVQPGGSLRLSCAASGYPFNGYWINWVRQAPGKGLEWVGEILPGGGDTNYNEIFKGRFTISADTSKNTAYLQMNSLRAEDTAVYYCTRRVPVYFDYWGQGTLVTVSS
VL: DIQMTQSPSSLSASVGDRVTITCKASQSVDYDGDSFLNWYQQKPGKAPKLLIYAASNLESGVPSRFSGSGSGTDFTLTISSLQPEDFATYYCQQSNEDPLTFGQGTKVEIKR
notes: as for B1

Target: T1, extracellular domain of human CD79b
Test: phage selection, Fab on phage, plate-bound huCD79becd

| Binder | binding result |
| --- | --- |
| B1 | binds |
| B2 | binds |
| B3 | binds |
| B4 | binds |
| B5 | binds |
| B6 | binds |
| B7 | binds |
| B8 | binds |
| B9 | binds |
| B10 | binds |
| B11 | binds |
| B12 | binds |
| B13 | binds |
| B14 | binds |
| B15 | binds |
| B16 | binds |
| B17 | binds |
| B18 | binds |
| B19 | binds |
| B20 | binds |
| B21 | binds |
